The series deals with the molecule itself. Nature of the series: SEC. For orientation: Size exclusion chromatography separates by hydrodynamic size, large species first.

“And” between values parts separate entries of the source, which are not always exact repeats. Equal values may be shown once.

B1: vanillin dehydrogenase from Corynebacterium glutamicum ATCC13032 (VDH_(ATCC13032)) (enzyme, UniProt Q8NMB0 1-484, looked up)
chain: MTATFAGIDATKHLIGGQWVEGNSDRISTNINPYDDSVIAESKQASIADVDAAYEAAKKAQAEWAATPAAERSAIIYRAAELLEEHREEIVEWLIKESGSTRSKANLEITLAGNITKESASFPGRVHGRISPSNTPGKENRVYRVAKGVVGVISPWNFPLNLSIRSVAPALAVGNAVVIKPASDTPVTGGVIPARIFEEAGVPAGVISTVAGAGSEIGDHFVTHAVPKLISFTGSTPVGRRVGELAINGGPMKTVALELGGNAPFVVLADADIDAAAQAAAVGAFLHQGQICMSINRVIVDAAVHDEFLEKFVEAVKNIPTGDPSAEGTLVGPVINDSQLSGLKEKIELAKKEGATVQVEGPIEGRLVHPHVFSDVTSDMEIAREEIFGPLISVLKADDEAHAAELANASDFGLSAAVWSKDIDRAAQFALQIDSGMVHINDLTVNDEPHVMFGGSKNSGLGRFNGDWAIEEFTTDRWIGIKRS
For B1, the stoichiometry N (as a rule, the number of molecules, sites or subunits per partner or assembly) is 4 and 3 and 2.

The values above are taken from publication PMC4306973 (Scientific Reports, 2015).
